Read-outs that look alike come from different tables or passages of the source.
What was measured:
[1] = target: AbnA-D2 (D2), his-tagged arabinase family protein (Geobacillus stearothermophilus T-6) (UniProt B3EYN2); settings: 5'-amino; Selection buffers listed (assay buffer and temperature not stated in material): AGR2 137 mM NaCl, 20 mM KCl, 10 mM Na2HPO4, 2 mM KH2PO4 pH 7.4; 6H7 50 mM …; cited from earlier work
[2] = target: AbnA-D2 (D2), his-tagged arabinase family protein (Geobacillus stearothermophilus T-6) (UniProt B3EYN2); experiment: porous silicon RIFTS (EOT) biosensor; settings: 5'-amino; Selection buffers listed (assay buffer and temperature not stated in material): AGR2 137 mM NaCl, 20 mM KCl, 10 mM Na2HPO4, 2 mM KH2PO4 pH 7.4; 6H7 50 mM …

Sequence: GCTATGGGTGGTCTGGTTGGGATTGGCCCCGGGAGCTGGC [anti-his tag aptamer 6H7]
- Kd [1]: 4.6 µM
- Kd [2]: 29 µM

Reference: publication PMC7589614
